Experimental data published in patent publication US11046988B2, “Process for the modification of a glycoprotein using a β-(1,4)-N-acetylgalactosaminyl transferase or a mutant thereof” (Synaffix B.V., priority 2014, dated 2021).

Test system: trimmed trastuzumab (core GlcNAc(Fuc) / core GlcNAc, glycan of formula (1))
Assay: Glycosyltransfer of sugar derivative to trimmed (Endo S deglycosylated) trastuzumab, MS analysis
Assay type: biochemical
Conditions: for cumulative conversions of the major and minor product, F2-GalNAz transfer: UDP-F2-GalNAz (18) 1 mM, enzyme 0.25 mg/mL; for cumulative conversions of the major and minor product, F2-GalNBzN3 transfer: UDP-F2-GalNBzN3 (24) 1 mM, enzyme 0.5 mg/mL; for major heavy chain product, F2-GalNAz transfer to core GlcNAc(Fuc)-substituted trastuzumab: UDP-F2-GalNAz 0.4 mM, GalNAcT 1 mg/mL, 10 mM MnCl2, pH 8.0, 16 hours, 30° C.
Description: Trimming of IgG glycans was performed using Endo S from Streptococcus pyogenes (commercially available from Genovis, Lund, Sweden). The IgG (10 mg/mL) was incubated with Endo S (40 U/mL) in 25 mM Tris pH 8.0 for approximately 16 hours at 37° C. The deglycosylated IgG was concentrated and washed with 10 mM MnCl2 and 25 mM Tris-HCl pH 8.0 using an Amicon Ultra-0.5, Ultracel-10 Membrane (Millipore).
Trastuzumab was subjected to the trimming protocol above. Analysis of the trimmed antibody was performed on a JEOL AccuToF equipped with an Agilent 1100 HPLC. Samples (2 μL) were reduced with DTT (2 μL) during 10 min and subsequently diluted with H2O (40 μL) prior to injection. […] The two peaks of heavy chain belonged to one major product (49496 Da, 90% of total heavy chain), resulting from core GlcNAc(Fuc) substituted trastuzumab, and a minor product (49351 Da, ±10% of total heavy chain), resulting from core GlcNac substituted trastuzumab. This is an example of a glycoprotein comprising a glycan according to formula (1).
A solution of 50 μg (modified) IgG, 1 M Tris-HCl pH 8.0, 1 mM EDTA and 30 mM DTT with a total volume of approximately 70 μL was incubated for 20 minutes at 37° C. to reduce the disulfide bridges allowing to analyze both light and heavy chain. If present, azide-functionalities are reduced to amines under these conditions. Reduced samples were washed trice with milliQ using an Amicon Ultra-0.5, Ultracel-10 Membrane (Millipore) and concentrated to 10 μM (modified) IgG. The reduced IgG was analyzed by electrospray ionization time-of-flight (ESI-TOF) on a JEOL AccuTOF. Deconvoluted spectra were obtained using Magtran software.
Enzymatic introduction of galactose derivative (e.g. azido-containing sugar) onto IgG was effected with a GalNAc-transferase or a mutant thereof. The deglycosylated IgG (prepared as described above, 10 mg/mL) was incubated with a modified UDP-galactose derivative (e.g. an azido-modified sugar-UDP derivative) (0.4 mM) and GalNAcT (1 mg/mL) in 10 mM MnCl2 and 25 mM Tris-HCl pH 8.0 for 16 hours at 30° C. The functionalized IgG (e.g. azido-functionalized IgG) was incubated with protein A agarose (40 μL per mg IgG) for 2 hours at 4° C. The protein A agarose was washed three times with PBS and the IgG was eluted with 100 mM glycine-HCl pH 2.7. The eluted IgG was neutralized with 1 M Tris-HCl pH 8.0 and concentrated and washed with PBS using an Amicon Ultra-0.5, Ultracel-10 Membrane (Millipore) to a concentration of 15-20 mg/mL.
Enzymatic introduction of galactose derivative (e.g. thio-containing sugar 21) onto IgG was effected with a GalNAc-transferase or a mutant thereof. The deglycosylated IgG (prepared as described above, 10 mg/mL) was incubated with a modified UDP-galactose derivative (e.g. an thio-modified sugar-UDP derivative) (2 mM) and GalNAcT (0.2 mg/mL) in 10 mM MnCl2 and 50 mM Tris-HCl pH 6.0 for 16 hours at 30° C. The functionalized IgG (e.g. thio-functionalized trastuzumab) was incubated with protein A agarose (40 μL per mg IgG) for 1 hours at rt. The protein A agarose was washed three times with TBS (pH 6.0) and the IgG was eluted with 100 mM glycine-HCl pH 2.5. The eluted IgG was neutralized with 1 M Tris-HCl pH 7.0 and concentrated and washed with 50 mM Tris-HCl pH 6.0 using an Amicon Ultra-0.5, Ultracel-10 Membrane (Millipore) to a concentration of 15-20 mg/mL.

B1: TnGalNAcT(wt): wild-type TnGalNAcT compared with the mutants; probably His6-TnGalNAcT(33-421), SEQ ID NO: 49, from E. coli (protein)
chain: MGSSHHHHHHSSGLVPRGSHMSPLRTYLYTPLYNATQPTLRNVERLAANWPKKIPSNYIEDSEEYSIKNISLSNHTTRASVVHPPSSITETASKLDKNMTIQDGAFAMISPTPLLITKLMDSIKSYVTTEDGVKKAEAVVTLPLCDSMPPDLGPITLNKTELELEWVEKKFPEVEWGGRYSPPNCTARHRVAIIVPYRDRQQHLAIFLNHMHPFLMKQQIEYGIFIVEQEGNKDFNRAKLMNVGFVESQKLVAEGWQCFVFHDIDLLPLDTRNLYSCPRQPRHMSASIDKLHFKLPYEDIFGGVSAMTLEQFTRVNGFSNKYWGWGGEDDDMSYRLKKINYHIARYKMSIARYAMLDHKKSTPNPKRYQLLSQTSKTFQKDGLSTLEYELVQVVQYHLYTHILVNIDERS
modifications: His6-TnGalNAcT(33-421)
cumulative conversions of the major and minor product, F2-GalNAz transfer (overnight): 95% | cumulative conversions of the major and minor product, F2-GalNBzN3 transfer (overnight): 14%

B2: TnGalNAcT(W336F): T. ni GalNAcT mutant, tryptophan 336 to phenylalanine, SEQ ID NO: 50 (protein)
chain: MGSSHHHHHHSSGLVPRGSHMSPLRTYLYTPLYNATQPTLRNVERLAANWPKKIPSNYIEDSEEYSIKNISLSNHTTRASVVHPPSSITETASKLDKNMTIQDGAFAMISPTPLLITKLMDSIKSYVTTEDGVKKAEAVVTLPLCDSMPPDLGPITLNKTELELEWVEKKFPEVEWGGRYSPPNCTARHRVAIIVPYRDRQQHLAIFLNHMHPFLMKQQIEYGIFIVEQEGNKDFNRAKLMNVGFVESQKLVAEGWQCFVFHDIDLLPLDTRNLYSCPRQPRHMSASIDKLHFKLPYEDIFGGVSAMTLEQFTRVNGFSNKYWGFGGEDDDMSYRLKKINYHIARYKMSIARYAMLDHKKSTPNPKRYQLLSQTSKTFQKDGLSTLEYELVQVVQYHLYTHILVNIDERS
modifications: His6-TnGalNAcT(33-421; W336F)
cumulative conversions of the major and minor product, F2-GalNAz transfer (overnight): 24%

B3: TnGalNAcT(W336V): T. ni GalNAcT mutant, tryptophan 336 to valine, SEQ ID NO: 52 (protein)
chain: MGSSHHHHHHSSGLVPRGSHMSPLRTYLYTPLYNATQPTLRNVERLAANWPKKIPSNYIEDSEEYSIKNISLSNHTTRASVVHPPSSITETASKLDKNMTIQDGAFAMISPTPLLITKLMDSIKSYVTTEDGVKKAEAVVTLPLCDSMPPDLGPITLNKTELELEWVEKKFPEVEWGGRYSPPNCTARHRVAIIVPYRDRQQHLAIFLNHMHPFLMKQQIEYGIFIVEQEGNKDFNRAKLMNVGFVESQKLVAEGWQCFVFHDIDLLPLDTRNLYSCPRQPRHMSASIDKLHFKLPYEDIFGGVSAMTLEQFTRVNGFSNKYWGVGGEDDDMSYRLKKINYHIARYKMSIARYAMLDHKKSTPNPKRYQLLSQTSKTFQKDGLSTLEYELVQVVQYHLYTHILVNIDERS
modifications: His6-TnGalNAcT(33-421; W336V)
cumulative conversions of the major and minor product, F2-GalNAz transfer (overnight): 27%

B4: TnGalNAcT(E339A): T. ni GalNAcT mutant, glutamic acid 339 to alanine, SEQ ID NO: 53 (protein)
chain: MGSSHHHHHHSSGLVPRGSHMSPLRTYLYTPLYNATQPTLRNVERLAANWPKKIPSNYIEDSEEYSIKNISLSNHTTRASVVHPPSSITETASKLDKNMTIQDGAFAMISPTPLLITKLMDSIKSYVTTEDGVKKAEAVVTLPLCDSMPPDLGPITLNKTELELEWVEKKFPEVEWGGRYSPPNCTARHRVAIIVPYRDRQQHLAIFLNHMHPFLMKQQIEYGIFIVEQEGNKDFNRAKLMNVGFVESQKLVAEGWQCFVFHDIDLLPLDTRNLYSCPRQPRHMSASIDKLHFKLPYEDIFGGVSAMTLEQFTRVNGFSNKYWGWGGADDDMSYRLKKINYHIARYKMSIARYAMLDHKKSTPNPKRYQLLSQTSKTFQKDGLSTLEYELVQVVQYHLYTHILVNIDERS
modifications: His6-TnGalNAcT(33-421; E339A)
cumulative conversions of the major and minor product, F2-GalNAz transfer (overnight): 5%

B5: TnGalNAcT(L302A): T. ni GalNAcT mutant, leucine 302 to alanine, SEQ ID NO: 43 (protein)
chain: MGSSHHHHHHSSGLVPRGSHMSPLRTYLYTPLYNATQPTLRNVERLAANWPKKIPSNYIEDSEEYSIKNISLSNHTTRASVVHPPSSITETASKLDKNMTIQDGAFAMISPTPLLITKLMDSIKSYVTTEDGVKKAEAVVTLPLCDSMPPDLGPITLNKTELELEWVEKKFPEVEWGGRYSPPNCTARHRVAIIVPYRDRQQHLAIFLNHMHPFLMKQQIEYGIFIVEQEGNKDFNRAKLMNVGFVESQKLVAEGWQCFVFHDIDLLPLDTRNLYSCPRQPRHMSASIDKAHFKLPYEDIFGGVSAMTLEQFTRVNGFSNKYWGWGGEDDDMSYRLKKINYHIARYKMSIARYAMLDHKKSTPNPKRYQLLSQTSKTFQKDGLSTLEYELVQVVQYHLYTHILVNIDERS
modifications: His6-TnGalNAcT(33-421; L302A)
cumulative conversions of the major and minor product, F2-GalNAz transfer (overnight): 95% | cumulative conversions of the major and minor product, F2-GalNBzN3 transfer (overnight): 37%

B6: DmGalNAcT: truncated Drosophila melanogaster β-(1,4)-GalNAcT, amino acids 47-403 of SEQ ID NO: 5 (SEQ ID NO: 9) (protein)
chain: HKYAHIYGNASSDGAGGSEASRLPASPLALSKDRERDQELNGGPNSTIRTVIATANFTSIPQDLTRFLLGTKKFLPPRQKSTSALLANCTDPDPRDGGPITPNTTLESLDVIEAELGPLLRPGGAFEPENCNAQHHVAIVVPFRDRYAHLLLFLRNIHPFLMKQRIAYRIFIVEQTNGKPFNRAAMMNIGYLEALKLYQWDCFIFHDVDLLPLDDRNLYNCPRQPRHMSVAIDTLNFRLPYRSIFGGVSAMTREHFQAVNGFSNSFFGWGGEDDDMSNRLKHANLFISRYPVNIARYKMLKHQKEKANPKRYENLQNGMSKIEQDGINSIKYSIYSIKQFPTFTWYLAELKNSERKS
modifications: DmGalNAcT (47-403)
major heavy chain product, F2-GalNAz transfer to core GlcNAc(Fuc)-substituted trastuzumab: approximately 90 % of total heavy chain

B7: AsGalNAcT: truncated Ascaris suum β-(1,4)-GalNAcT, amino acids 30-383 of SEQ ID NO: 3 (SEQ ID NO: 7) (protein)
chain: DYSFWSPAFIISAPKTLTTLQPFSQSTSTNDLAVSALESVEFSMLDNSSILHASDNWTNDELVMRAQNENLQLCPMTPPALVGPIKVWMDAPSFAELERLYPFLEPGGHGMPTACRARHRVAIVVPYRDRESHLRTFLHNLHSLLTKQQLDYAIFVVEQTANETFNRAKLMNVGYAEAIRLYDWRCFIFHDVDLLPEDDRNLYSCPDEPRHMSVAVDKFNYKLPYGSIFGGISALTREQFEGINGFSNDYWGWGGEDDDLSTRVTLAGYKISRYPAEIARYKMIKHNSEKKNPVNRCRYKLMSATKSRWRNDGLSSLSYDLISLGRLPLYTHIKVDLLEKQSRRYLRTHGFPTC
modifications: AsGalNAcT (30-383)
major heavy chain product, F2-GalNAz transfer to core GlcNAc(Fuc)-substituted trastuzumab: approximately 90 % of total heavy chain | major product, GalNButN3 transfer to core GlcNAc(Fuc) substituted trastuzumab (UDP-GalNButN3 0.7 mM, AsGalNAcT(wt) 0.2 mg/mL, overnight): 50 % of total heavy chain | major product, GalNProSH transfer to core GlcNAc(Fuc) substituted trastuzumab (UDP-GalNProSH 2 mM, AsGalNAcT 0.2 mg/mL, overnight): 95 % of total heavy chain | major product, GalNPropN3 transfer to core GlcNAc(Fuc) substituted trastuzumab (UDP-GalNPropN3 0.7 mM, AsGalNAcT 0.2 mg/mL, overnight): 70 % of total heavy chain
